Measured values as given in publication PMC7210950, “Btk SH2-kinase interface is critical for allosteric kinase activation and its targeting inhibits B-cell neoplasms” (Nature Communications, 2020).
Square brackets hold non-standard residues; d marks the D form. Ends that are not written are not given here. pY = N[C@@H](Cc1ccc(OP(=O)(O)O)cc1)C(=O)O

Tests used:
Assay in all cases: fluorescence polarisation; Btk SH2 WT and mutants at several concentrations with 1 µM FITC-labeled peptide; Tris 40 mM pH 8, 150 mM NaCl, 1 mM DTT; 1:1 binding model
Details in all cases: both partners purified
[1] = target: T1, Btk SH2 domain H364D (XLA mutation) (human, UniProt Q06187 271-383, H364D)
T1 construct: SH2 domain of human Btk with the XLA patient mutation H364D; Same limits as m1; source: E. coli Bl21(DE3), purified (Ni-NTA, TEV cleavage, SEC); not shown: His6, N-terminal, cleaved; GST, N-terminal, cleaved

[2] = target: T2, Btk SH2 domain K296E (XLA mutation) (human, UniProt Q06187 271-383, K296E)
T2 construct: SH2 domain of human Btk with the XLA patient mutation K296E; Same limits as m1; source: E. coli Bl21(DE3), purified (Ni-NTA, TEV cleavage, SEC); not shown: His6, N-terminal, cleaved; GST, N-terminal, cleaved

[3] = target: T3, Btk SH2 domain K374N (XLA mutation) (human, UniProt Q06187 271-383, K374N)
T3 construct: SH2 domain of human Btk with the XLA patient mutation K374N; Same limits as m1; also called Btk SH2 K374N; source: E. coli Bl21(DE3), purified (Ni-NTA, TEV cleavage, SEC); not shown: His6, N-terminal, cleaved; GST, N-terminal, cleaved

[4] = target: T4, Btk SH2 domain R372G (XLA mutation) (human, UniProt Q06187 271-383, R372G)
T4 construct: SH2 domain of human Btk with the XLA patient mutation R372G; Same limits as m1; source: E. coli Bl21(DE3), purified (Ni-NTA, TEV cleavage, SEC); not shown: His6, N-terminal, cleaved; GST, N-terminal, cleaved

[5] = target: T5, Btk SH2 domain, wild-type (recombinant) (human, UniProt Q06187 271-383)
T5 construct: SH2 domain of human Bruton's tyrosine kinase (Btk); the construct is in PDB 6HTF; Construct limits are not in the text; also called Btk SH2 WT; human Btk SH2 domain; source: E. coli Bl21(DE3), purified (Ni-NTA, TEV cleavage, SEC); not shown: His6, N-terminal, cleaved; GST, N-terminal, cleaved

[6] = target: T6, Btk SH2 domain S371P (XLA mutation) (human, UniProt Q06187 271-383, S371P)
T6 construct: SH2 domain of human Btk with the XLA patient mutation S371P; Same limits as m1; source: E. coli Bl21(DE3), purified (Ni-NTA, TEV cleavage, SEC); not shown: His6, N-terminal, cleaved; GST, N-terminal, cleaved

Measured: binding result

T5 sequence (Q06187 271-383): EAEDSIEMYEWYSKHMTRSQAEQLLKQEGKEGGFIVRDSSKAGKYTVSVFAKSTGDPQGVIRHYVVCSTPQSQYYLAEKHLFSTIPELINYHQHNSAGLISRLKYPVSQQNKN
T2 sequence (Q06187 271-383 K296E): as the sequence (Q06187 271-383) above, with K26E counted along it
T4 sequence (Q06187 271-383 R372G): as the sequence (Q06187 271-383) above, with R102G counted along it
T3 sequence (Q06187 271-383 K374N): as the sequence (Q06187 271-383) above, with K104N counted along it
T1 sequence (Q06187 271-383 H364D): as the sequence (Q06187 271-383) above, with H94D counted along it
T6 sequence (Q06187 271-383 S371P): as the sequence (Q06187 271-383) above, with S101P counted along it

B1: FITC-labeled pY-peptide (ADNDpYIIPLPD) (peptide)
peptide: ADND[pY]IIPLPD
modifications: also: FITC label, end not given here
notes: also called fluorescently labeled pY-peptide
binds: [1] | [2] | [3] | [4] | [5] | [6]
